Data reported in the RNAGym collection of RNA variant scans (doi:10.1073/pnas.2313332121).
This sample holds only a part of the variants without activity.

B1: TPR 5TU (parent)
chain: GGAUCUUCUCGAUCUAACAAAAAAGACAAAUCUGCCACAAAGCUUGAGAGCAUCUUCGGAUGCAGAGGCGGCAGCCUUCGGUGGCGCGAUAGCGCCAACGUUCUCAACUAUGACACGCAAAACGCGUGCUCCGUUGAAUGGAGUUUAUCAUG

Variants of: B1
Experiment: polymerase ribozyme fitness, log enrichment relative to wild type (log ratio); higher = more active; in vitro selection for triplet polymerase activity
Summary of the method: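 Mutant libraries were PCR-built and transcribed for each subunit of a heterodimeric triplet polymerase ribozyme and selected for one round in triplicate at −7 °C, frozen, before gel excision of extended constructs and streptavidin-bead capture. Input and output libraries were Illumina-sequenced, keeping genotypes with ≥10 input reads and ≥1 read per output. Fitness is a logarithmic ratio of genotype to wild-type enrichment, in base 2, using inverse-variance-weighted replicate averages.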

| Variant | polymerase ribozyme fitness (log ratio) |
| --- | --- |
| U4G G11U A40U U55A A98U | -3.1 |
| C5G C10G A28U U33G C79U | ≤ -4.2 |
| U4C U53A G92C C114A A120G | ≤ -4.2 |
| C5A A16C G50A C76U G86C U144G | ≤ -4.2 |
| C5G A23G G50C A52C C69G A119G | ≤ -4.2 |
| C5A C27U C75A A142G U146G | ≤ -4.2 |
| U4G C8A U31A U55A C87U U101C G133C | ≤ -4.2 |
| U4C C51U C76U G94A | -1.51 |
| C5A G86C G92U | -3.93 |
| C5A A16U G46C G84U A91G U109C A115U G136C | ≤ -4.2 |
| U4G U9A C35A G48C U134G | ≤ -4.2 |
| C5A C85U | -0.371 |
| C5A A47G C79A G83U G140A U146G | ≤ -4.2 |
| U4G A40G C72G C87U U104G C118U A122G | ≤ -4.2 |
| U4G G74A G84U U109A | ≤ -4.2 |
| U4G G84A U109A A115C C123A | -2.01 |
| C5A | 0.273 |
| C5G | -0.157 |
| C5A A28G C35G A37U C85G C96G C103G U151A | -3.65 |
| U4G A47U G58C C93G | -4 |
| U4G C5G A29G A52U G67U C79G G83A | ≤ -4.2 |
| C5A C85U C93U | -1.66 |
| C5A U13G C27A G34A G42C C96A | ≤ -4.2 |
| U4C C57A C95A C96U G141A | -3.87 |

| Variant | polymerase ribozyme fitness (log ratio) |
| --- | --- |
| U4C C10G A28C A49C G86A C99G U104G | ≤ -4.2 |
| U4G A23C C79A G92C G100A | ≤ -4.2 |
| C5G A21U A49G C93A A137U | ≤ -4.2 |
| U4C C85G C99U C125G | -3.5 |
| C5G A39G G88A C131G | ≤ -4.2 |
| C5A U6G U13G U53A C116G G126U | -3.78 |
| U4G G48A G88C C123U U134G A137C | ≤ -4.2 |
| U4G A19C C36A A119C G133A | ≤ -4.2 |
| C5G A22U G58U A60U A64U G83C | ≤ -4.2 |
| C5G A19G A24C A40U U55A G83U G86U | ≤ -4.2 |
| U4G C38U G58A C95U C96U U127C | -3.54 |
| U4C C85U U101G A147C | -0.704 |
| U4C A49C A52C C99A C132U G136U G140U | ≤ -4.2 |
| C5G A20C G48C U56A G62A | -4.11 |
| C5A U45C G58U U82C G84A | -3.97 |
| C5A C76U | -0.144 |
| C5G C27U C38G G81A U104C A115C | ≤ -4.2 |
| C5A C38U G50A A60G C95A C103U G126U | -3.13 |
| U4G A23U A26U C27G C63U U90G C93A C108U C114U C129G G140C | ≤ -4.2 |
| C5G A19C G42U C79U C105U G126U | ≤ -4.2 |
| C5G A17G A26C A40U U82G C87U C118G C129A C131A G141C | ≤ -4.2 |
| U4C C14U U15A A41C C93A C95U | ≤ -4.2 |
| C5A G141U | 0.735 |
| C5A U45C A64U C75A G141C U145C A150U | ≤ -4.2 |

| Variant | polymerase ribozyme fitness (log ratio) |
| --- | --- |
| C5G A73U G124A | -1.49 |
| C5G A41U G59C G84A | -2.99 |
| U4G U53A C85U G133C | -2.45 |
| U4G A12G A17G C93U G141C | -3.94 |
| U4G A23G C32U G62C G94C G126A G143U | -4.05 |
| U4C G50A G83A C87A A91C G92A U146A | ≤ -4.2 |
| C5G A40C G71A C85A A142C A150C | ≤ -4.2 |
| U4G U33G C75A C87G U109A A113U G117U | ≤ -4.2 |
| U4G A20C C43U U55A G59U A60G C87A A121G G141C | ≤ -4.2 |
| C5G A29G G46U A60G | ≤ -4.2 |
| C5A U7G G88U C105G G136A A137U G152U | ≤ -4.2 |
| C5G C96U | -0.763 |
| U4G U9C A23U C43A U56G C87U U111G C132U | ≤ -4.2 |
| C5A A40G C87U | -2.81 |
| U4C A22U A73U C96G A120G | -2.21 |
| U4C A22U C32G C38G G65C G81A C118U C149U | ≤ -4.2 |
| U4C G42A A49C G50C C51U C79G A91U A121G | ≤ -4.2 |
| U4G A40C A137G | -1.84 |
| C5G A20G C51U A106G | -1.64 |
| C5A C69G G84A C108U | -3.39 |
| U4G C27U A97U | -2.22 |
| C5G A28C A73G | ≤ -4.2 |
| U4C A49G C51A C87A C132U A150C | ≤ -4.2 |
| C5G C132U U146G | -3.69 |

| Variant | polymerase ribozyme fitness (log ratio) |
| --- | --- |
| C5G A20G C27A C72U A120U | ≤ -4.2 |
| C5A C54U U55A C95G C96A | -4.05 |
| C5A U9G A73G C87U A120U C123U A147G | -3.95 |
| U4G G48U G84A C93A G133A G141C | ≤ -4.2 |
| U4G A19G A23G G59U A66U G141C | ≤ -4.2 |
| U4G A24G U44A U56G G94A A138C | ≤ -4.2 |
| C5G G11A A73G C76U | -2.17 |
| U4C U144G | 0.832 |
| U4C C5U A12C G25C A40U G58C G133U | ≤ -4.2 |
| C5A G81U C85G C99U U134A | -4.04 |
| C5A C38U A66C C72U C79A C96A G117A | ≤ -4.2 |
| U4G C87A | ≤ -4.2 |
| U4C G74A | -3.29 |
| C5A A17C G88A G117U | -3.46 |
| C5G C18A A23G C54G G67A C93G C99G | ≤ -4.2 |
| C5G C85A | -1.7 |
| C5G A21G U55A C57U A147C | -0.914 |
| U4G U7G A49U C75G C93U | ≤ -4.2 |
| C5A C69A G84A U104G C125U G126A A142C | ≤ -4.2 |
| C5A C38U G59A C87G C103A A121U G126A U146C | ≤ -4.2 |
| C5A C8G A21U C54G C57U G58A C69A G81A A115U G133C G143U | ≤ -4.2 |
| C5A U6A G94U C123U U148G | ≤ -4.2 |
| U4C C5U A20C C87A A98C G133U U148G | ≤ -4.2 |
| C5A U13A A24G U82C G100C | ≤ -4.2 |

| Variant | polymerase ribozyme fitness (log ratio) |
| --- | --- |
| C5A A37U C51U U56A C79A C96G C116G G133C | ≤ -4.2 |
| C5A A110C | ≤ -4.2 |
| U4C C18U G48U A49C G68U G74A C76A G88U C116G | ≤ -4.2 |
| C5A A16U U53A C57G U90G C95A | ≤ -4.2 |
| U4C C35G C96U | ≤ -4.2 |
| C5A A12U | 0.264 |
| C5A C76A C85G G133C | -2.61 |
| C5A G136A | 0.816 |
| C5A C51U | -0.595 |
| U4G C14U A52U C63U C85U | -4.13 |
| U4G G25A U45G C87A C99A C103U C105G U139G G143A | -4.11 |
| C5A G92A | -1.42 |
| U4G A106G | -0.112 |
| C5G C38A A39C A60U A73G G94U U104A A138U | ≤ -4.2 |
| U4C C5A C10U U33A G88C C116U G140A | ≤ -4.2 |
| U4G A16C A28U C38U U55A C75G U111C A122U A142C | ≤ -4.2 |
| C5G C8G C85A G126U | ≤ -4.2 |
| C5A U77A C87A | ≤ -4.2 |
| C5G C93G | -2.51 |
| C5G C93U | -2.31 |
| C5G C87U | -0.787 |
| C5G C87A | ≤ -4.2 |
| U4C A47U C85U C105A C116G G143A A147U | ≤ -4.2 |
| C5A A16U A24U C35A U56A C85G U109G U144C | ≤ -4.2 |

| Variant | polymerase ribozyme fitness (log ratio) |
| --- | --- |
| C5G C96A G117A | -0.406 |
| U4G A17U C51U A52U C57A C75G G83U G117U G136U | ≤ -4.2 |
| U4C C96G | 0.0289 |
| C5A A17U G83U C87G | ≤ -4.2 |
| C5G A89G C96U U135G | ≤ -4.2 |
| U4C C10U A20C A29U A52C A138C G140U | ≤ -4.2 |
| U4G C79A C93A | ≤ -4.2 |
| U4G U7G U13G C43A C54U U78G G94C | ≤ -4.2 |
| C5A A60G | 0.956 |
| C5G C103A G117A | -2.88 |
| U4C C36U A49G A66U G83A C85G G88A C114U U146G | ≤ -4.2 |
| U4C A26U C69U | -2.9 |
| U4G U6G C85U G141A | -3.39 |
| C5G C79A C96A | ≤ -4.2 |
| U4C G58U C75A A91U U104G U144A C149U | ≤ -4.2 |
| C5A A26G A115G | ≤ -4.2 |
| U4G A19C G58U C69U C96A | -0.414 |
| C5A U13G G81U G92C U145G | -2.12 |
| U4C U53A U55A G81C A150U | -1.4 |
| C5A U7C A22U C103G | -2.38 |
| U4G G11U G59A C93U C125U U144C | ≤ -4.2 |
| U4C U7G C27U U31A G68U G88U | ≤ -4.2 |
| U4G A97U | 0.0622 |
| C5A C87U | -0.502 |

| Variant | polymerase ribozyme fitness (log ratio) |
| --- | --- |
| U4C G48A | -1.42 |
| C5A G81A | 0.566 |
| U4G A41U A91C A97U | ≤ -4.2 |
| C5G C14G A41C G48C G126A G140A | ≤ -4.2 |
| C5A G48C | -0.334 |
| U4G U55G | -0.607 |
| U4G C54G A64U C95U U134G | ≤ -4.2 |
| U4C G94C C116G | -0.818 |
| C5G A40C C69A G70U A89C | ≤ -4.2 |
| U4G A21U C32G C38G C93G U146A | ≤ -4.2 |
| U4C C35U A47C U78G G136C | ≤ -4.2 |
| C5A C14G G94C G143A | -4.07 |
| U4C C5A C87A A91G U145A | ≤ -4.2 |
| C5A A12C G42A G68C C79A G83A C108G | ≤ -4.2 |
| C5A C18G A40U | -0.118 |
| U4G C5A U55G | -0.269 |
| U4C G48U A49C G68A C79G C105A | ≤ -4.2 |
| C5G C57U | -0.358 |
| C5A U9G C93G C103A C108G A113G A137G | ≤ -4.2 |
| U4G U56A A60C C76G A91C C95U A142C | ≤ -4.2 |
| C5A C96U | 0.321 |
| C5A C85G C105U | -1.21 |
| C5A C79A G88A A106C | ≤ -4.2 |
